Laboratory results reported in patent US7572771.
Values joined by “and” are separate entries in the source; they are usually repeats but may differ in a detail not shown here. Equal values may be shown once. Where no end group is shown, it is not given here.

Columns and labels:
[1] = target: human ABCA1 transporter (ATP-binding cassette transporter A1) (human) (UniProt O95477); test: two-step sequential competition on ABCA1-transfected HeLa cells; competitor at 8 µM, tracer 125I-L-37pA
[2] = target: human ABCA1 transporter (ATP-binding cassette transporter A1) (human) (UniProt O95477); test: cell-based or functional assay
[3] = target: human ABCA1 transporter (ATP-binding cassette transporter A1) (human) (UniProt O95477); test: 125I-L-37pA (1 µg/ml, 1 hour, 4° C.) bound to ABCA1-transfected HeLa cells, no competitor

UniProt O95477, sequence (O95477 whole entry): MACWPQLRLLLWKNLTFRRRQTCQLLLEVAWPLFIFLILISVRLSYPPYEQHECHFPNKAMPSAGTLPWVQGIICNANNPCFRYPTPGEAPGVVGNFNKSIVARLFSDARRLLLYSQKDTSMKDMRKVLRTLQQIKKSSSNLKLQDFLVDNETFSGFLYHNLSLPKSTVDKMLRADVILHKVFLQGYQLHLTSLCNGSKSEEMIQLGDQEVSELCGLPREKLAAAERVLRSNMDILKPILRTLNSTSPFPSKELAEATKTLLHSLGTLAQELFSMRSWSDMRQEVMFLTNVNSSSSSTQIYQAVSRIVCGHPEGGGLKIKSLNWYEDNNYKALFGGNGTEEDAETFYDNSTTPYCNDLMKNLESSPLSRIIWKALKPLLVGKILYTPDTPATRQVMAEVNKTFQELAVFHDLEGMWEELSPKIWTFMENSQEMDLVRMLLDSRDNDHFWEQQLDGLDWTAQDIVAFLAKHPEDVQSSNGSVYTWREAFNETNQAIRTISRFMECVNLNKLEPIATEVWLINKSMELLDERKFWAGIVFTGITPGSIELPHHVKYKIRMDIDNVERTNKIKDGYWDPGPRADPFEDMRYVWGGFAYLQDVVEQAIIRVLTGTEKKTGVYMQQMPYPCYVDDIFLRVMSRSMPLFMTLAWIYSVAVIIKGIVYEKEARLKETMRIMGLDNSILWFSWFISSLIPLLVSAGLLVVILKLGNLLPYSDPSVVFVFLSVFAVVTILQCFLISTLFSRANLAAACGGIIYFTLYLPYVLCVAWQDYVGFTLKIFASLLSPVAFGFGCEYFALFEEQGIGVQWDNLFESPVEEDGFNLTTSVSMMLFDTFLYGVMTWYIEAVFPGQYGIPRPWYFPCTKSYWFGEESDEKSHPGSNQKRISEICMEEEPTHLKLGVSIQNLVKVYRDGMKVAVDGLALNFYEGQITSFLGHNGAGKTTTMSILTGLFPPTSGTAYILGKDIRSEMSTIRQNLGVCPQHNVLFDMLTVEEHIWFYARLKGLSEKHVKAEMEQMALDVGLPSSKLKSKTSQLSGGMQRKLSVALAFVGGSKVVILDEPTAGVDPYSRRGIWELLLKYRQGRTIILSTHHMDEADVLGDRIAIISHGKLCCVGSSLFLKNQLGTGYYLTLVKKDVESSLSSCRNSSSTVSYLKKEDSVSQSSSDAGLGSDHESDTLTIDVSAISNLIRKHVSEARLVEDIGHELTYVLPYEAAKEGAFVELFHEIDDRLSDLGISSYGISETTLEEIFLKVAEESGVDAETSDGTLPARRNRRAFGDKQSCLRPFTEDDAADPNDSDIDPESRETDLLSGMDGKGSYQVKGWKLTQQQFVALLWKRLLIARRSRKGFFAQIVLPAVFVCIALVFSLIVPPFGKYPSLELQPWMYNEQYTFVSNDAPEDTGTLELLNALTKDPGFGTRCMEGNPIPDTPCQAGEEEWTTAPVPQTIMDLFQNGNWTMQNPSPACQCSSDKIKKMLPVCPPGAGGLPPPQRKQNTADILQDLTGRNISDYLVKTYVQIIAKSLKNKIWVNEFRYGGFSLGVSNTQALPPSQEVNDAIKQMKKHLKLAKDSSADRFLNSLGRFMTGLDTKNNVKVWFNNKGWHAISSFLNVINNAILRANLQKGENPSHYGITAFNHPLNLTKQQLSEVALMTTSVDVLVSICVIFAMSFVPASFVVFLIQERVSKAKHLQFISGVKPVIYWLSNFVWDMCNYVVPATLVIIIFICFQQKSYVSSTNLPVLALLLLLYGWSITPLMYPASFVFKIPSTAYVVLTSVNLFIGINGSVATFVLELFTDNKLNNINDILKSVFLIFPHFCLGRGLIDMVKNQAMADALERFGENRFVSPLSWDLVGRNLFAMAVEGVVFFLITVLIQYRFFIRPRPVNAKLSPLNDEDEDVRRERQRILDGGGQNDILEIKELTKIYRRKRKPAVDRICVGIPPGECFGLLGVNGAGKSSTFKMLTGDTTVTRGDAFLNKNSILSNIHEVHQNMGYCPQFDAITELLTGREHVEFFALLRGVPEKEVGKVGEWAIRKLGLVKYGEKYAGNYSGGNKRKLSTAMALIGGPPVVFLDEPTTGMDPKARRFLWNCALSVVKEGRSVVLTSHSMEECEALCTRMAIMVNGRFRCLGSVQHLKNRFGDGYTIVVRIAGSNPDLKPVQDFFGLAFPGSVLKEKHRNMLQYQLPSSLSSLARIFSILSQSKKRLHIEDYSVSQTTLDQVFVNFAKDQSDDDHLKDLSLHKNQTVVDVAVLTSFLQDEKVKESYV

Binder: DWLKAFYDKVAEKLKEAFPDWLKAFYDKVAEKLKEAF (also: tracer form 125I-labelled with iodine monochloride) [L-37pA peptide]
- percent of labeled L-37pA binding blocked [1]: 40%
- cholesterol and phospholipid efflux, ABCA1 cells against control cells [2]: 2 fold and 4 fold
- concentration at which lipid efflux begins to show saturation [2]: 2 µM
- cell-bound radiolabeled peptide in the absence of a competitor (pmol/mg cell protein) [3]: 35
